We go through one protein from PMC8061786 (Journal of Molecular Biology, 2021).

This series concerns the molecule itself. The series can be described thus: crystal structure.

B1: SARS-CoV main protease (M^pro) (enzyme)
chain: SGFRKMAFPSGKVEGCMVQVTCGTTTLNGLWLDDTVYCPRHVICTAEDMLNPNYEDLLIRKSNHSFLVQAGNVQLRVIGHSMQNCLLRLKVDTSNPKTPKYKFVRIQPGQTFSVLACYNGSPSGVYQCAMRPNHTIKGSFLNGSCGSVGFNIDYDCVSFCYMHHMELPTGVHAGTDLEGKFYGPFVDRQTAQAAGTDTTITLNVLAWLYAAVINGDRWFLNRFTTTLNDFNLVAMKYNYEPLTQDHVDILGPLSAQTGIAVLDMCAALKELLQNGMNGRTILGSTILEDEFTPFDVVRQCSGVTFQ
For B1, the binding result is listed as “binds”.
